Measurements as given in the DeepSol protein solubility set.

Test: soluble on expression in E. coli; label from the status in PepcDB or PDB records

Sequence	soluble on expression in E. coli
MGSDKIHHHHHHVLVRRLAQAPVPIAGVAVLGTITPEDQQAAEDARLPLLQLPEGVDLREVEREITRLITDYEAQFERRAARLYDLLTQCSLQGGGISGLLDILHERTGQSVAFYASNGVLRAQRGRGQSRLALQALRPNGRGETTLLNQQIWVEPIGNSGLPIGYVAIAGTLLDPWDRTAAQRGALALALELAKEQAVQAAEERLRGDFIAGILAGAPGDLAAVIQRGQELGYTLHLPHTAMLVHIDDASTATLARAATNIQNELKRLGVNAPISRRESNVLCMLPTTSVTRLRELTEQLRERLRLDHPNVVIAIGTPATHLTEWRRSVEEAEQSLSLGRQIFGNDRVLAFGDLGVYRLLIRLRETPELWSFYRETLSSLAEYDKRQHADLIKTLEAYFNHLGNLRATSEALHVHRNTLLYRLERIKEISGMDLDNAEEHFALWLAVRAHRILATLEE	not soluble
MGSDKIHHHHHHVRKFKIPNMGALLAFEAAARHESFTHAARELFLTESAVSRQINTLESNLGVRLFVRVKQRVMLTRAGKVYSAQVRRSLEQLDRDTLSIIAHGSGGGYLELAVLPTFASQWLIPRLAAFNAQYPDVRVNMGVRTGTFPFAETHFEAAIHYGKPTWPGTSADFLFSEEVVPVCAASLLKRPVQSAADLLDYPLVHSTTRPDGWAAWFANMGIDDNRTMQGVRYELHTMLISAAAAGLGIALVPRFFVDAQLEQLGLVIPLDAPVVADSAYYLVYPTELSHGKPLASFREWLLREAAAYSAVNPELGGPRDMD	not soluble
MGSDKIHHHHHHVSPHSPVQLSLPVYLPDDETFNSYYPAAGNDELILSLQASAEGRANKAVYLWGPVKAGRTHLMHATCARANELNRSSFYLPLGIHASISTELLEGLEQLDLVCIDDVDAIAGHPLWEEALFDLYNRVAEHKRCALVVSASATASDAGFALPDLVSRMQWGLTYQLQPMADEEKLAALQRRAAMRGLQLPEDVGRFLLNRLARDLRTLFDVLDRLDKASLVHQRKLTIPFVKEMLRL	not soluble
MGSDKIHHHHHHVSSPNIDIELDALKEAVSVALAHAKKLGSSAAEVAISKQQGLSVSTRTQEVETVEFNKDGALGITVYRGGCKGSSSTSDLSTDAIALAVKAADDIARYTSEDPFSGLADSALMAKNIRDLQLYYPQDIGAEELADLAIRAEKAGVDADTRIKYSDGATANAHTSAKVYANSHGFLQGYCSSRYSLSSVVIGEESDGNMQRDYDYTVSRKFADLLSPEEVGAKAAEKTLSRLDARKIATAKLPVLFAPEIATGLIGHLIGAISGGSLYRKSSFLLDSLHTHIFPDWFSIEEQPHILSGLASANYDSEGVATQDRRIIDRGQLETYLLTSYSARKLGMTNTGHAGGIYNWTLSHSNQTFADLIKAMNTGLIVTEVMGQGVNGVTGDYSRGAAGFYVENGVIQYPVEEITIAGNLKDMFIGIQGVAMDRDLRSSIRTGGILLSEMKIAGN	not soluble
MGSDKIHHHHHHVTTVTRSFDDAWRRWIAENLLLDAPPSALHGALLGHGFDAADVTREIEAALASPYFHGAARLRNRLRKREWILSVYSELNRMRAASGVIERCERLSRDAFFEQYYFQNRPVIITGAFDFWPACSRWNWDYLRRQCGDCEVEVQFGRESDANYEINQPRLTRMMRFADYVDLVEQRGPTNDFYMTANNTSRNRAALAALWSDVPPIDAYLDAASPDTGFFWMGPAGTKTPFHHDLTNNFMAQVIGRKHIKLVPLSDTPYMANHLHCYSRVDGGAIDFDSFPSMRQAQLIECTLAPGELLFLPVGWWHYVEGIDASVTMTFTNFLRSNDFSRRYDTYHEL	not soluble
MGSDKIHHHHHHVVAEAVNLQFDYSRYGFRQEERYVYKAPKGLNERIVRELSGMKGEPEWMLKRRLRALEIFNKKPTPLVGTWANPELAELNYDDIHYFVRANERPQTDWDAVPPEIKNTFERLGIPEAERKFLAGVGAQYESEVVYHSLREEWAKQGVIFLDTDTALKEYPEFFKEYFGTIVPAADNKYAALNTAVWSGGSFVYVPKGVKVDIPLQAYFRINAERMGQFERTLIIIDEGAEAHYIEGCTAPIYSTNSLHSAVVEVIVKKGGKFRYTTIQNWANNIFNLVTKRAVAYEEASMEWVDGNIGSKLTMKYPSVYLMGRKARGEVLSVAYAGRGQHQDAGAKMIHLAPETTSRITNKSVSKDGGKTTYRGLAKVAPGAYGAKINVNCDALILDEHSASDTIPYIEIEEDRCTLAHEATVGRIGAEQLFYLMSRGISESDALSMIVLGFMEPFTRELPMEYAVELNRLIQLEMEGSVG	not soluble
MGSDKIHHHHHHVYYAHFGLKEPPFKITPNTDFFFRGGNRGAVLEALRYAILHGEGIVKVVGEVGSGKTMLCRMLQTQLPDHVDSVYLANPSMAPEDVLHAIALELHLDIPDRLSKLEVMQRLQQALLDKHEARRQVVVFVEEAQGMPLATLEEIRLLTNLETRHHKLLQIVLFGQPELDDNLNQRQIRQLKERITHSFYLGPLSRDEIAEYLMFRLRAAGYYGPPLFTKRAVKQLAKMAQGLVRRVNILADKSLLAAFAANADQVTPRHVAAAIRDSEFAGEIQRPVGRWSVLIGGLVLGVAGMALYAWSQGMLPLPVAPAPVTHAETEQRLEEAHSLENESGRGMSGVLPLLMQREEASLVWLDSTPPEYITIALMHDFPETDQEKEQQLLSANLVLDDVYALRTKVGEEDRVIILYGAYENRQQALEEFRSLPKALQMGAYLRTIAGIREELLQHQ	not soluble
MGSEHAFQGPTSFHVIQTSSFTNSTWAQTQGSGWLDDLQIHGWDSDSGTAIFLKPWSKGNFSDKEVAELEEIFRVYIFGFAREVQDFAGDFQMKYPFEIQGIAGCELHSGGAIVSFLRGALGGLDFLSVKNASCVPSPEGGSRAQKFCALIIQYQGIMETVRILLYETCPRYLLGVLNAGKADLQRQVKPEAWLSSGPSPGPGRLQLVCHVSGFYPKPVWVMWMRGEQEQQGTQLGDILPNANWTWYLRATLDVADGEAAGLSCRVKHSSLEGQDIILYWGPGSGGGLNDIFEAQKIEWH	soluble
MGSHHHHHHDITSLYKKAGSAAAVLEENLYFQGSFTMRRKVFEELVTATKILLNEGIMDTFGHISARDPEDPASFFLAQKLAPSLITVDDIQRFNLDGETSDNRPSYLERYIHSEIYKTRPDVQCVLHTHSPAVLPYCFVDTPLRPVTHMGAFIGESVPVYEIRDKHGDETDLFGGSPDVCADIAESLGSQTVVLMARHGVVNVGKSVREVVFRAFYLEQEAAALTAGLKIGNVKYLSPGEIKTAGKLVGAQIDRGWNHWSQRLRQAGLA	soluble
MGSHHHHHHMGQSVEVEILLNDAESRKRAEHKTEDGKKEKYFLFYDGETVSGKVSLSLKNPNKRLEHQGIKIEFIGQIELYYDRGNHHEFVSLVKDLARPGEITQSQAFDFEFTHVEKPYESYTGQNVKLRYFLRATISRRLNDVVKEMDIVVHTLSTYPELNSSIKMEVGIEDCLHIEFEYNKSKYHLKDVIVGKIYFLSVEIKIKHMEIDIIKRETTGTGPNVYHENDTIAKYEIMDGAPVRGSSIPIRLFLAGYELTPTMRDINKKFSVRYYLNLVLIDEEERRYFKQQEVVLWRKGDIVRKSMSHQAAIASQRFEGTTSLGEVRTPGQLSDNNSRQ	soluble
MGSLEKFNLIDEPWIPVLKGGRVVEVGIGEALLRAHEFARIETPSPLEEAVLHRLLLAVLHRALSGPRCPEDVLDWWRKGGFPQDPIRDYLNRFRDRFFLFHPEAPFLQVADLPEENPLPWSKLLPELASGNNPTLFDHTTEENLPKATYAQAARALLVHQAFAPGGLLRRYGVGSAKDAPVARPALFLPTGQNLLETLLLNLVPYTPEDDAPIWEVPPLRLGDLEGARTKWPLTGRTRVYTWPARGVRLLDEGDGVRFMGYGPGVEPLEATHRDPMVAQRLDAKGNLLVLRLSEERSFWRDFSAMLPRQGGKVAATLEHAENLQGELEDEGLEGRITLRVLGQVSDQAKVLDIRREVYPLPSGLLTPKAEENLEKALKMAEELGQGLKHLAQEVAKAVVGERDRGHGRSPYLEELTKLANSLPLERLYWHALDGAFPRFFARVEEEASLDLWREALRGAALEAWKATRRFLGTGARHLKALAQGEQEFGRLLGELGEEVRT	soluble
MGSRSSHAAVIPDGDSIRRETGFSQASLLRLHHRFRALDRNKKGYLSRMDLQQIGALAVNPLGDRIIESFFPDGSQRVDFPGFVRVLAHFRPVEDEDTETQDPKKPEPLNSRRNKLHYAFQLYDLDRDGKISRHEMLQVLRLMVGVQVTEEQLENIADRTVQEADEDGDGAVSFVEFTKSLEKMDVEQKMSIRILKHHHHHH	soluble
MGSSHHHHHHGGTGENLYFQGGSGAGIKSRERLRRDQERQLRQLPFLYHRVKDLQDTCERLEQELASSHQRVAAFQQEAFALRSLIKFTEHPELAAAAKNDAAKHVLQEEVRELRNQVQRLRREKELSLRQSEEACEAAEFYKELCDQLYEESLRAAEAIAVGGATSGLESVVTPLPNRNVDDMTLAVSTAPSTATSMEAQMRQLHGALELERARSSALVETVSLLHTAMKATTAAGTKRSTPAPDSSAGWAERRREDDTSGICASRSRVFADDTRKSRTRLKRLAAVLRVENRLLTQRVTEVVARNMRCVKEISALKLANKRLELNQRQES	soluble
MGSSHHHHHHGGTGENLYFQGGSGAKKHLKRLYAPKDWMLSKLTGVFAPRPRPGPHKLRECLPLLVIIRNRLKYALNAREGEMILRQGLVHVDNHPRRDGKYPAGFMDVVEIPKTGDRFRLMYDVKGRFALVNLSEAEAQIKLMKVVNLYTATGRVPVAVTHDGHRIRYPDPHTSIGDTIVYNVKEKKCVDLIKNRQGKAVIVTGGANRGRIGEIVKVECHPGAFNIAHLKDASGAEFATRAANIFVIGKDLNNLQVTVPKQQGLRMNVIQEREERLIAAEARKNAPARGARRARK	soluble
MGSSHHHHHHGGTGENLYFQGGSGTNVPLTQRITAFNNYVGNASNRDRVMSVVQFGAMALAAPAAAAGCPELSAHLSTILHGAAHYRTVTRFSQWLVVAPALTPSGIKSAIASHPNLLVGICKTISTAFFTVFLIGEELVLASKCNMLDPVLGKRFNRIRFVFLFWSNIARLVMSYLLLKSSKYDAVKDNQNEEKAKDHRRKVLGVADGVLQSMFCYTLLKSSAPAGPKYLSAALRSGKAVDIITSLAPPLLVVPSTPQGMLGLAASVPGFMMSVL	not soluble
MGSSHHHHHHMAYTNTPHNWGIPRPKNETVPDAGKLYTDLLQKNGGFYLGDTKKKDIYLTFDNGYENGYTGKILDVLKEKKVPATFFVTGHYIKTQKDLLLRMKDEGHIIGNHSWSHPDFTAVNDEKLREELTSVTEEIKKVTGQKEVKYVRPPRGVFSERTLALTKEMGYYNVFWSLAFLDWKVDEQRGWQYAHNNVMTMIHPGSILLLHAISKDNAEALAKIIDDLREKGYHFKSLDDLVKSNQP	soluble
MGSSHHHHHHNYNIPTTENLYFQGHMNIGLLEALDQLEEEKGISKEEVIPILEKALVSAYRKNFGNSKNVEVVIDRNTGNIKVYQLLEVVEEVEDPATQISLEEAKKIDPLAEVGSIVKKELNVKNFGRIAAQTAKQVLIQRIRELEKEKQFEKYSELKGTVTTAEVIRVMGEWADIRIGKLETRLPKKEWIPGEEIKAGDLVKVYIIDVVKTTKGPKILVSRRVPEFVIGLMKLEIPEVENGIVEIKAIAREPGVRTKVAVASNDPNVDPIGACIGEGGSRIAAILKELKGEKLDVLKWSDDPKQLIANALAPATVIEVEILDKENKAARVLVPPTQLSLAIGKGGQNARLAAKLTGWKIDIKPIMNL	soluble
MGSSHHHHHHSSGLVPRGSAKSFSSQKAYKIVLAGDAAVGKSSFLMRLCKNEFRENISATLGVDFQMKTLIVDGERTVLQLWDTAGQERFRSIAKSYFRKADGVLLLYDVTCEKSFLNIREWVDMIEDAAHETVPIMLVGNKADIRDTAATEGQKCVPGHFGEKLAMTYGALFCETSAKDGSNIVEAVLHLAREVKKRT	soluble
